Measured values: IntAct's records for PubMed 18488041

B1: Proto-oncogene vav (Mus musculus), P27870 (parent)
chain: MELWRQCTHWLIQCRVLPPSHRVTWEGAQVCELAQALRDGVLLCQLLNNLLPQAINLREVNLRPQMSQFLCLKNIRTFLSTCCEKFGLKRSELFEAFDLFDVQDFGKVIYTLSALSWTPIAQNKGIMPFPTEDSALNDEDIYSGLSDQIDDTAEEDEDLYDCVENEEAEGDEIYEDLMRLESVPTPPKMTEYDKRCCCLREIQQTEEKYTDTLGSIQQHFMKPLQRFLKPQDMETIFVNIEELFSVHTHFLKELKDALAGPGATTLYQVFIKYKERFLVYGRYCSQVESASKHLDQVATAREDVQMKLEECSQRANNGRFTLRDLLMVPMQRVLKYHLLLQELVKHTQDATEKENLRLALDAMRDLAQCVNEVKRDNETLRQITNFQLSIENLDQSLANYGRPKIDGELKITSVERRSKTDRYAFLLDKALLICKRRGDSYDLKASVNLHSFQVRDDSSGERDNKKWSHMFLLIEDQGAQGYELFFKTRELKKKWMEQFEMAISNIYPENATANGHDFQMFSFEETTSCKACQMLLRGTFYQGYRCYRCRAPAHKECLGRVPPCGRHGQDFAGTMKKDKLHRRAQDKKRNELGLPKMEVFQEYYGIPPPPGAFGPFLRLNPGDIVELTKAEAEHNWWEGRNTATNEVGWFPCNRVHPYVHGPPQDLSVHLWYAGPMERAGAEGILTNRSDGTYLVRQRVKDTAEFAISIKYNVEVKHIKIMTSEGLYRITEKKAFRGLLELVEFYQQNSLKDCFKSLDTTLQFPYKEPERRAISKPPAGSTKYFGTAKARYDFCARDRSELSLKEGDIIKILNKKGQQGWWRGEIYGRIGWFPSNYVEEDYSEYC

Variants of: B1
Details: with RAC1, P63000-1

Variant	effect of a mutation on the interaction
K208A	increasing interaction
Y174F	increasing interaction
